{
  "source": "patent US20070299244A1",
  "about": "“Liposome allowing liposome-entrapped substance to escape from endosome” (Japan Science and Technology Agency, priority 2005, published 2007)",
  "origin": "cited, not measured here",
  "note": "Read-outs that look alike come from different tables or passages of the source.",
  "data": [
    {"substance": "GALA: synthetic peptide comprising the amino acid sequence represented by SEQ ID NO:1 (AALAELAEALAEALHEALAEALAEALAAEW; Designed peptide called “GALA”)", "values": [
      {"measurement": "Proportion of α helix structures", "setting": "pH 5.0", "result": "about 70%"},
      {"measurement": "Proportion of α helix structures", "setting": "pH 7.4", "result": "about 20%"}
    ]}
  ]
}
